For four molecules, Kd, koff and kon results are on record in patent US20140363438A1, “NEUREGULIN ANTIBODIES AND USES THEREOF” (Genentech, Inc., priority 2011, published 2014).

Changes are numbered by the printed parent chain.

Test [1] addresses T1, Recombinant human NRG1-α EGF domain (R&D Systems, cat#296-HR/CF) (human, UniProt Q02297 177-241).
T1 construct: also called NRG1-alpha; HRG1α
T1 sequence: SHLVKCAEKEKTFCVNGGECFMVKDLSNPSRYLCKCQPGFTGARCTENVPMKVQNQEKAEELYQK
Nature of the test: SPR (BIAcore T100), IgG captured by anti-human Fc, NRG1α injected; table under the head '250 nM NRG1-alpha'. How it is done:
(§1) Binding affinities of anti-NRG1 IgGs were measured by Surface Plasmon Resonance (SRP) using a BIAcore™-T100 instrument. Anti-NRG1 human IgGs were captured by mouse anti-human Fc antibody (GE Healthcare, cat# BR-1008-39) coated on CM5 biosensor chips to achieve approximately 1000 response units (RU). […] Association rates (kₒₙ) and dissociation rates (koff) were calculated using a simple one-to-one Langmuir binding model (BIAcore Evaluation Software version 3.2). The equilibrium dissociation constant (KD) was calculated as the ratio koff/kₒₙ.
(In general: SPR reads the build-up and loss of mass on a sensor chip optically.)

Test [2] deals with T2, Recombinant human NRG1-β ECD domain (R&D Systems, cat#377-HB/CF) (human, UniProt Q02297-11 121-191, limits assumed).
T2 construct: also called NRG1-beta; HRG1β
T2 sequence: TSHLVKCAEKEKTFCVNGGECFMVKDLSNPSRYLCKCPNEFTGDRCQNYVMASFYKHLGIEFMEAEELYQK
The test can be described thus: SPR (BIAcore T100), IgG captured by anti-human Fc; table under the head '125nM NRG-beta'; this table is identical to that of FIG. 9 (NRG1-alpha) and does not fit the slow dissociation of the sensorgrams above it.

Test [3] has as its target T2, Recombinant human NRG1-β ECD domain …. The test can be described thus: SPR (BIAcore T100), IgG captured by anti-human Fc, NRG1β (HRG-beta) injected; sensorgram shown for 7.8 nM (sheet: '7.8 mnM HRG beta'). As for the experimental part:
as §1

Test [4] deals with T1, Recombinant human NRG1-α EGF domain …. Nature of the test: SPR (BIAcore T100), IgG captured by anti-human Fc, NRG1α (HRG-alpha) injected; sensorgram shown for 7.8 nM (sheet: '7.8 mnM HRG alpha'). How it is done: as §1

B1: anti-NRG1 antibody 538.24 (antibody, human IgG1, V domains shown)
VH: EVQLVESGGGLVQPGGSLRLSCAASGFTFSGTWIHWVRQAPGKGLEWVAAITPADGSTNYADSVKGRFTISADTSKNTAYLQMNSLRAEDTAVYYCATYMFAMDYWGQGTLVTVSS
VL: DIQMTQSPSSLSASVGDRVTITCRASQDVSTAVAWYQQKPGKAPKLLIYSASFLYSGVPSRFSGSGSGTDFTLTISSLQPEDFATYYCQQSYTTPPTFGQGTKVEIKR
notes: also called YW538.24
Turning to B1, the Kd (usually the concentration at which binding is half-saturated) in test [1] was over 400 nM.

B2: anti-NRG1 antibody 538.24.17 (antibody, human IgG1, V domains shown)
VH: B1 VH
VL: B1 VL with T93W, T94M
notes: also called YW538.24.17
Regarding B2, in test [1], the Kd is 5.18 nM; the koff (as a rule, the first-order rate constant of dissociation) was found to be 0.0081 s⁻¹; the kon – broadly, the rate constant with which the complex forms – was determined as 1.56e+06 M⁻¹ s⁻¹. Besides, in test [2], the Kd is 5.18 nM, the koff is 0.0081 s⁻¹ and the kon came out at 1.56e+06 M⁻¹ s⁻¹.

B3: anti-NRG1 antibody 538.24.94 (antibody, human IgG1, V domains shown)
VH: B1 VH
VL: B1 VL with S30K, T31K, A32S, V33L, S50G, F53N, Y55E, S91H, T94L, P96L
notes: also called YW538.24.94
B3: the results for the Kd in test [3], in test [4] and in test [2] were 0.109 nM, 1.74 nM and 1.96 nM, respectively. Moreover, the koff in test [3] stood at 7.34e-05 s⁻¹; in test [4] it was 0.00674 s⁻¹. For the same molecule, the kon worked out at 674000 M⁻¹ s⁻¹ in test [3], 3.87e+06 M⁻¹ s⁻¹ in test [4] and 480000 M⁻¹ s⁻¹ in test [2].

B4: anti-NRG1 antibody 538.24.36 (antibody, human IgG1, V domains shown)
VH: B1 VH
VL: DIQMTQSPSSLSASVGDRVTITCRASQNVDRSLAWYQQKPGKAPKLLIYAASSLESGVPSRFSGSGSGTDFTLTISSLQPEDFATYYCQQHYTLPFTFGQGTKVEIKR
notes: also called YW538.24.36
In the case of B4, in test [1], the Kd came out at 13.2 nM, the koff is 0.0252 s⁻¹ and the kon was determined as 1.91e+06 M⁻¹ s⁻¹. Besides, in test [2], the Kd turned out to be 13.2 nM, the koff is 0.0252 s⁻¹ and the kon stood at 1.91e+06 M⁻¹ s⁻¹.
